Reference: patent US11712410 (K18, dated 2023)
No end group written: not given here.

T1: Hair Keratin KRTHB1 Basic (UniProt Q14533 304-505, limits assumed)
T1 construct: The keratin was printed onto a bare gold SPRi chip; also called natural hair keratin
T1 sequence (looked up): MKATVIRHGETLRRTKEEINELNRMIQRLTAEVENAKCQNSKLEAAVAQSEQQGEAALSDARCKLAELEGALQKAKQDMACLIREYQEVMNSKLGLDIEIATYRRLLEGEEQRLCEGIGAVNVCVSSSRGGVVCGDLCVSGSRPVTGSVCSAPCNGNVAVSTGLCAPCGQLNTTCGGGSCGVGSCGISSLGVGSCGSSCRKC


Key:
[1] = molecular target: T1, Hair Keratin KRTHB1 Basic; test: SPRi (PlexArray HT), rank among the three peptides tested on keratin
Experimental: (§1) Various concentrations of Keratin dissolved in water were manually printed onto the bare gold coated (thickness 47 nm) PlexArray Nanocapture Sensor Chip (Plexera Bioscience, Seattle, Wash., US) at 40% humidity. Each concentration was printed in replicate, and each spot contained 0.2 uL of […] solution. The chip was incubated in 80% humidity at 4° C. for overnight, and rinsed with 10×PBST for 10 min, 1×PBST for 10 min, and deionized water twice for 10 min. The chip was then blocked with 5% (w/v) non-fat milk in water overnight, and washed with 10×PBST for 10 min, 1×PBST for 10 min, and deionized water twice for 10 min before being dried under a stream of nitrogen prior to use. SPRi measurements were performed with PlexAray HT (Plexera Bioscience, Seattle, Wash., US). Collimated light (660 nm) passes through the coupling prism, reflects off the SPR-active gold surface, and is received the CCD camera. Buffers and samples were injected by a non-pulsatile piston pump into the 30 uL flowcell that was mounted on the coupling prim. Each measurement cycle contained four steps: washing with PBST running buffer at a constant rate of 2 uL/s to obtain a stable baseline, sample injection at 5 uL/s for binding, surface washing with PBST at 2 uL/s for 300 s, and regeneration with 0.5% (v/v) H3PO4 at 2 uL/s for 300 s. All the measurements were performed at 4° C. The signal changes after binding and washing (in AU) are recorded as the assay value. Selected protein-grafted regions in the SPR images were analyzed, and the average reflectivity variations of the chosen areas were plotted as a function of time. Real-time binding signals were recorded and analyzed by Data Analysis Module (DAM, Plexera Bioscience, Seattle, Wash., US). Kinetic analysis was performed using BIAevaluation 4.1 software (Biacore, Inc.).

[2] = molecular target: T1, Hair Keratin KRTHB1 Basic; test: SPRi (PlexArray HT), keratin printed on gold chip, peptide injected, 4 C
Experimental: as §1

[3] = molecular target: T1, Hair Keratin KRTHB1 Basic; test: SPRi (PlexArray HT), keratin printed on the gold chip, peptide injected; kinetic fit with BIAevaluation 4.1; five curves labelled 5.68 to 91.2 nM
Experimental: as §1

| Binder | Affinity Ranking [1] | Kd [2] | koff [3] | kon [3] |
| --- | --- | --- | --- | --- |
| FCGFPSCSTSG (also called Aquis peptide 1; Peptide Aquis 1) [Aquis Pep1] | 1 | 365 nM | 0.000478 s⁻¹ | 1310 M⁻¹ s⁻¹ |
| CTPPSCCQLHHA (also called Aquis peptide 2; Peptide Aquis 2) [Aquis Pep 2] | 3 | 2500 nM | 0.0206 s⁻¹ | 8240 M⁻¹ s⁻¹ |
| GGVCGPSPPCITT (not fully specified; cysteine pairing not given here, Control peptide developed by Khairpep; also called KP peptide; third peptide) [KP] | 2 | 814 nM | 0.00692 s⁻¹ | 8500 M⁻¹ s⁻¹ |
